Experimental findings from patent US20090162360A1 (Hoffmann-La Roche, published 2009) are described below.

For assay [1], the target named is T1, human ANGPT2 (R&D Systems) (human, UniProt O15123 19-496, limits assumed).
T1 construct: also called hANGPT2; Ang-2
T1 sequence (looked up): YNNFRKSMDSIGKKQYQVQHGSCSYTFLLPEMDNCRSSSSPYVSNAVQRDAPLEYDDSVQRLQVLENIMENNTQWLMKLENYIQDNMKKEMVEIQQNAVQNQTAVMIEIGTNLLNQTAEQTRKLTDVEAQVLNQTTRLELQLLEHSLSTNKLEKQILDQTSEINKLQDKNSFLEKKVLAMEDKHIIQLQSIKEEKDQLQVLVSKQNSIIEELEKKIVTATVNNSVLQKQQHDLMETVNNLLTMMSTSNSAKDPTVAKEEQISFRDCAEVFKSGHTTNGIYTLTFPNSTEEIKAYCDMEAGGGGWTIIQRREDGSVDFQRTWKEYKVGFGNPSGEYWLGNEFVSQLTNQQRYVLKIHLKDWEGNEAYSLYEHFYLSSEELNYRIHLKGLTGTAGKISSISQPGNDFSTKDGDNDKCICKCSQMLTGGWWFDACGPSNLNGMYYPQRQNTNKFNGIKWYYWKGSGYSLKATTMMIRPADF
Briefly: cellular FACS IGF-1R-ANGPT2 bridging assay on I24 cells with 2 µg/mL hANGPT2, detection <ANGPT2>mIgG1-Biotin + Streptavidin-PE. Here is the method:
(§1) The assay principle is depicted in FIG. 10.
(§2) Briefly, 5×10E5 I24 cells per FACS tube were incubated with total purified antibody mix and incubated on ice for 1 h (titration 160 μg/ml mix). The respective purified antibodies wildtype <IGF-1R> and <ANGPT2> were applied to the I24 cells as controls. Unbound antibody was washed away with 4 ml ice cold PBS (Gibco)+2% FCS (Gibco), cells were centrifuged (5 min at 400 g) and bound bispecific antibody was detected with 50 μl 2 μg/mL human ANGPT2 (R&D Systems) for 1 h on ice. Subsequently, unbound ANGPT2 was washed away once or twice with 4 ml ice cold PBS (Gibco)+2% FCS (Gibco), cells were centrifuged (5 min at 400 g) and bound ANGPT2 was detected with 50 μl 5 μg/mL <ANGPT2>mIgG1-Biotin antibody (BAM0981, R&D Systems) for 45 min on ice; alternatively, cells were incubated with 50 μl 5 μg/mL mIgG1-Biotin-Isotype control (R&D Systems). Unbound detection antibody was washed away with 4 ml ice cold PBS (Gibco)+2% FCS (Gibco), cells were centrifuged (5 min at 400 g) and bound detection antibody was detected with 50 μl 1:400 Streptavidin-PE conjugate (Invitrogen/Zymed) for 45 min on ice protected from light. Unbound Streptavidin-PE conjugate was washed away with 4 ml ice cold PBS+2% FCS. […]

In assay [2] the target is T2, recombinant human IGF-1R on I24 cells (human, UniProt P08069 31-1367).
T2 construct: whole, on cells; also called IGF-1R in I24 cells; I24 IGF-1R expressing cells (NIH3T3 cells expressing recombinant human IGF-1R)
The description is as above. As to the method:
as §1, §2

B1: wildtype <IGF-1R> antibody (antibody, V domains shown)
VH: QVELVESGGGVVQPGRSQRLSCAASGFTFSSYGMHWVRQAPGKGLEWVAIIWFDGSSTYYADSVRGRFTISRDNSKNTLYLQMNSLRAEDTAVYFCARELGRRYFDLWGRGTLVSVSS
VL: EIVLTQSPATLSLSPGERATLSCRASQSVSSYLAWYQQKPGQAPRLLIYDASKRATGIPARFSGSGSGTDFTLTISSLEPEDFAVYYCQQRSKWPPWTFGQGTKVESKR
notes: Human IgG1/kappa antibody described in WO 2005/005635; also called <IGF-1R> wildtype antibody; original wildtype <IGF-1R> antibody
For B1, the binding result in assay [1] is listed as “no binding”.

B2: monospecific, bivalent <ANGPT2> wildtype antibody (antibody, V domains shown)
VH: EVQLVQSGGGVVQPGRSLRLSCAASGFTFSSYGMHWVRQAPGKGLEWVSYISSSGSTIYYADSVKGRFTISRDNAKNSLYLQMNSLRAEDTAVYYCARDLLDYDILTGYGYWGQGTLVTVSS
VL: not shown
notes: Human IgG1/kappa antibody described in WO 2006/045049; also called wildtype <ANGPT2> antibody; <Ang-2> control antibody
In the case of B2, in assay [2], the binding result is given as “no binding”.
